{
  "source": "paper PMC6220269",
  "about": "“Dynamic ubiquitylation of Sox2 regulates proteostasis and governs neural progenitor cell differentiation” (Nature Communications, 2018)",
  "binders": {"B1": {"name": "GST-OTUD7B-ZF (811–843) (domain or fragment, human, UniProt Q6GQQ9 811-843, looked up)", "chain": "GHPETNNFCSCCYREELRRREREPDGELLVHRF", "notes": "OTUD7B, human, C-terminal zinc finger (ZF) domain, residues 811-843; also called OTUD7B ZF domain; source: E. coli BL21, purified"}},
  "target": "T1, His-Sox2 (human, UniProt P48431 1-317)",
  "T1 construct": "Sox2, human, cloned into pGEX-6p-1 or pET-28a (+) for the GST pull-down; source: E. coli BL21, purified",
  "T1 sequence (P48431 whole entry)": "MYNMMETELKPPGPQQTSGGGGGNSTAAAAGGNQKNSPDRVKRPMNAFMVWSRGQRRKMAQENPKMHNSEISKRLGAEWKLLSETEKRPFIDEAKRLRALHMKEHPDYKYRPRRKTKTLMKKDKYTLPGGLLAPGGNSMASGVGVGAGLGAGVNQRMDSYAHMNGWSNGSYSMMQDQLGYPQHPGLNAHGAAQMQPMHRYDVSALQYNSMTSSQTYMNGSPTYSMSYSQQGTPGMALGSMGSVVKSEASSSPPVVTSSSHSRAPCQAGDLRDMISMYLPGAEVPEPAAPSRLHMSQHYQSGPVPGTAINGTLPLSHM",
  "assay": "pull-down; GST-tagged protein on glutathione-Sepharose 4B beads incubated with His-tagged protein for 24 h at 4 °C; washed four times with 100 mM NaCl, 10 mM Tris, 50 mM NaF, 2 mM EDTA, 0.5 mM Na3VO4, 1% Nonidet P40; western blot",
  "settings": "both partners purified",
  "data": [
    {"binder": "B1", "values": [
      {"measurement": "binding result", "result": "binds"}
    ]}
  ]
}
